Reference: patent US20030144176
Where a chain is given by its changes, count along the chain named.

B1: endogenous ERK5 immunoprecipitated from neonatal rat cardiomyocytes (protein)
chain: AEPLKEEDGEDGSGEPPGRVKAEPVHTAASVVAKNLALLKARSFDVTFDVGDEYEIIETIGNGAYGVVSSARRRLTGQQVAIKKIPNAFDVVTNAKRTLRELKILKHFKHDNIIAIKDILRPTVPYGEFRSVYVVLDLMESDLHQIIHSSQPLTLEHVRYFLYQLLRGLKYMHSAQVIHRDLKPSNLLVNENCELKIGDFGMARGLCTSPAEHQYFMTEYVATRWYRAPELMLSLHEYTQAIDLWSVGCIFGEMLARRQLFPGKNYVHQLQLIMMVLGTPSPAVIQAVGAERVRAYIQSLPPRQPVPWETVYPGADRQALSLLGRMLRFEPSARISAAAALRHPFLAKYHDPDDEPDCAPPFDFAFDREALTRERIKEAIVAEIEDFHARREGIRQQIRFQPSLQPVASEPVCPDVEMPSPWAPSGDCAMESPPPALPPCSGPAPDTVDLTLQPAPPASELAPPKREGAISDNTKAALKAALLKSLRSRLRDGPSAPLEAPEPRKPVTAQERQREREEKRRRRQERAKEREKRRQERERKERGAGTLGGPSTDPLAGLVLSDNDRSLLERWTRMARPPVPAPAPAPAPTPKPSSAQPTSPPNGPVSQSTAPLQPAGSIPGPASQPVCPPPGPVPQPAGPVPAPLQTAPSTSLLASQSLVPPSGLPGSGAPEVLPYFPSGPPPPDPGLTPQPSTSESPDVNLVTQQLSKSQVEDPLPPVFSGTPKGSGAGYGVGFDLEEFLNQSFDMGVADGPQDGQADSASLSASLLADWLEGHGMNPADIESLQREIQMDSPMLLSDLPDLQEP
B2: HA-tagged activated MEK5 (MEK5DD), MEK5β splice isoform with aspartate substitutions of serine-222 and threonine-226 (protein)
chain: MEQQVNGQLIEPLQIFPRACKPPGERNIHGLKVNTRAGPSQHTSPVVSDSLPSNSLKKSSAELRKILANGQMNEQDIRYRDTLGHGNGGTVYKAYHVPSGKILAVKVILLDITLELQKQIMSELEILYKCDSSYIIGFYGAFFVENRISICTEFMDGGSLDVYRKIPEHVLGRIAVAVVKGLTYLWSLKILHRDVKPSNMLVNTSGQVKLCDFGVSTQLVNDIAKDYVGTNAYMAPERISGEQYGIHSDVWSLGISFMELALGRFPYPQIQKNQGSLMPLQLLQCIVDEDSPVLPLGEFSEPFVHFITQCMRKQPKERPAPEELMGHPFIVQFNDGNATVVSMWVCRALEERRSQQGPP
B3: HA-tagged wild-type MEK5 (MEK5WT), MEK5β splice isoform (protein)
chain: B2 chain with D222S, D226T

How the values were obtained:
[1] = target: glutathione-S-transferase (GST) fused to MEF2C amino acids 204-321
[2] = target: GST-ERK5KMΔ, a truncated, catalytically inactive form of ERK5 with lysine-83 mutated to methionine, fused to glutathione-S-transferase

Protein	ERK5 immunoprecipitation (IP) kinase assay: 32P phosphorylation of GST-MEF2C [1]	IP kinase assay: 32P phosphorylation of GST-ERK5KM substrate by immunoprecipitated HA-MEK5 [2]
B1	Phosphorylation of GST-MEF2C indicated that ERK5 was activated 2-4 fold by hypertrophic agents	
B2		AdMEK5DD produced a constitutively active kinase
B3		Some kinase activity was also observed with the AdMEK5WT virus
